Results on two molecules are retold here after patent US20140105903A1 (Harvard, published 2014).

Assay [1] concerns the target ANG binding sites on ANG receptor expressing LNCaP cells. Put plainly: radio receptor assay, 125I-ANG on LNCaP cells at 4 C, Scatchard analysis.
The target is the same in assay [2]. Put plainly: radio receptor assay, 125I-ANG on LNCaP cells at 4 C, Scatchard analysis; second site.
The next assay concerns the target T1, Angiogenin (human ANG) (human, UniProt P03950 25-147, iodine-125 label in the radio receptor assay; coupled to Sepharose in the affinity chromatography).
T1 construct: also called free ANG
The experiment in a line: method not named at this place; Example 4 names ELISA and equilibrium dialysis. In general terms: In an ELISA, binding on a coated surface is turned into a signal by an enzyme label.

T1 sequence (P03950 25-147 limits assumed): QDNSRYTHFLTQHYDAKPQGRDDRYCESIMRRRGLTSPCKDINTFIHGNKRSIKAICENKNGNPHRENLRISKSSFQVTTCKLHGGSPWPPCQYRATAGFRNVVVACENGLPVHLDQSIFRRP

Usually Kd stands for the equilibrium constant for the complex coming apart. A lower Kd goes with a tighter complex. As for “Angiogenin (human ANG) (from UniProt P03950 25-147) (ligand)”, the values for the Kd in assay [1] and in assay [2] were 0.45 nM and 170 nM, respectively.

B1: Plexin B2 peptide GTSSEYDSILVEINKRVK (SEQ ID NO: 1) (peptide)
peptide: GTSSEYDSILVEINKRVK
notes: Chemically synthesized peptide from the region of Plexin B2 between residues 316 and 449
B1 returned a Kd with Angiogenin (human ANG) of 200 nM.
